2 molecules from patent US8178324B2, “Deracemisation of amines” (Ingenza Limited, priority 2002, dated 2012) can be followed below.

Positions count from the first letter of the chain named.

What all share (format): biochemical
The nature of series [1]: Specific activity of the purified MAO mutant active fraction against amylamine. Conditions: active fraction after QSepharose, protein 1 mg·ml^−1. As to the method: LB medium (6×300 ml) containing ampicillin (100 μg·ml^−1) in 1 L baffled flasks was inoculated with a single colony of monoamine oxidase mutant from an LB agar plate. Cultures were incubated at 30° C. for 22 hours (OD600˜3.6) then harvested and washed with phosphate buffer (50 mM, pH 8) to yield a yellow-brown pellet (11.2 g).
The pellet was resuspended in Tris/HCl buffer (25 mM, pH 7.8, 30 ml) and sonicated on ice (30 s on, 30 s off for 10 minutes). The suspension was then centrifuged (20,000 rpm, 4° C.) until clear supernatant was obtained and the supernatant dialysed against Tris/HCl buffer (25 mM, pH 7.8). The cell free extract was filtered through 0.45 μm sterile membrane and chromatographed on a QSepharose anion exchange column. Fractions were assayed using colorimetric hydrogen peroxide based assay and active fractions were stored at −80° C. The active fraction has a protein content of 1 mg·ml^−1, and a specific activity of 0.193 U·mg^−1 against amylamine. […]
The spectrophotometer was blanked against assay mixture and HRP. Enzyme was added and the absorbance at 500 nm measured at 3 s intervals for a 10 minute period.

Series [2] is described as follows: Specific activities of partially purified MAO WT and MAOArg259/260 towards amylamine. As to the method: MAO WT and MAOArg259/260 were partially purified from recombinant E. coli BL21(DE3) harbouring a pET16b carrying the corresponding mao-n gene. Cell free extracts were prepared by sonication and the specific activities of MAO WT and MAOArg259/260 towards AA were measured for both the soluble and insoluble fractions. (Table 3)

A short description of series [3]: Cell free extracts assayed towards L-AMBA. The note with it: 240 minutes. As to the method:
To 895 ul Assay Mixture was Added: • 5 μl HRP (Sigma, P6782) (1 mg/ml)
Sample (100 μl) was added and absorbance at 510 nm measured after 24 hours against a control without sample.
This was achieved by incubating 50 μl of each sample for 240 minutes and specific activities were determined. (Table 4)

B1: MAO mutant: A. niger monoamine oxidase variant with serine replacing asparagine at position 336 (SEQ ID NO: 2) (protein)
chain: MTSRDGYQWTPETGLTQGVPSLGVISPPTNIEDTDKDGPWDVIVIGGGYCGLTATRDLTVAGFKTLLLEARDRIGGRSWSSNIDGYPYEMGGTWVHWHQSHVWREITRYKMHNALSPSFNFSRGVNHFQLRTNPTTSTYMTHEAEDELLRSALHKFTNVDGTNGRTVLPFPHDMFYVPEFRKYDEMSYSERIDQIRDELSLNERSSLEAFILLCSGGTLENSSFGEFLHWWAMSGYTYQGCMDCLISYKFKDGQSAFARRFWEEAAGTGRLGYVFGCPVRSVVNERDAARVTARDGREFVAKRVVCTIPLNVLSTIQFSPALSTERISAMQAGHVSMCTKVHAEVDNMDMRSWTGIAYPFNKLCYAIGDGTTPAGNTHLVCFGTDANHIQPDEDVRETLKAVGQLAPGTFGVKRLVFHNWVKDEFAKGAWFFSRPGMVSECLQGLREKHGGVVFANSDWALGWRSFIDGAIEEGTRAARVVLEELGTKREVKARL
modifications: Variant monoamine oxidase enzyme generated by direct evolution
As for B1, the “specific activity against amylamine” value in series [1] is reported as 0.193 U·mg^−1.

B2: MAO WT: wild-type Aspergillus niger monoamine oxidase (SEQ ID NO:1) expressed in E. coli BL21(DE3) (protein)
chain: B1 chain with S336N
modifications: Aspergillus niger
In turn, B2 yielded a Total activity in series [2] of 0.57 U. The “Insoluble fraction specific activity” value in series [2] (insoluble fraction) is recorded as 0.33 U · mg^−1. Further, the “Soluble fraction specific activity” value is 0.23 U · mg^−1 in series [2] (soluble fraction) and 3.6 × 10^−5 U · mg^−1 in series [3]. In addition, in series [3] (50 μl sample), the “ΔAbs 510 nm” value is given as 0.06.
